This note sets out measurements from publication PMC10723142, “Structures of the P. aeruginosa FleQ-FleN master regulators reveal large-scale conformational switching in motility and biofilm control” (Proceedings of the National Academy of Sciences of the …, 2023).

B1: FleQ receiver and ATPase domain tandem (FleQ^REC-AAA+) (domain or fragment)
chain: not shown
notes: FleQ, P. aeruginosa PAO1, residues 1-394 (REC and AAA+ domains); untagged, from pRSFDuet1*; also called FleQ^1-394; HTH-truncated FleQ; source: E. coli BL21 Star (DE3), coexpressed with His6-FleN variants; in lysate (IMAC co-purification) and purified as complex (IMAC, SEC) for cryo-EM
B2: full-length untagged FleQ (FleQ^FL) (natural protein)
chain: not shown
notes: FleQ, P. aeruginosa PAO1 (amplified from genomic DNA), residues 1-490 covering the full-length protein; untagged, from pRSFDuet1*; also called FleQ^1-490; wild-type FleQ; source: E. coli BL21 Star (DE3), coexpressed with His6-FleN variants; in lysate (IMAC co-purification) and purified as complex (IMAC, SEC) for cryo-EM
B3: full-length FleN^D48A (His6 tag cleaved) (natural protein)
chain: MKQMGSMHPVQVIAVTGGKGGVGKTNVSVNLALALADLGRRVMLLDAALGLANVDVLLGLTPKRTLADVIEGRCELRDVLLLGPGGVRIVPAASGTQSMVHLSPMQHAGLIQAFSDISDNLDVLVVDTAAGIGDSVVSFVRAAQEVLLVVCDEPTSITDAYALIKLLNRDHGMTRFRVLANMAHSPQEGRNLFAKLTKVTDRFLDVALQYVGVIPYDESVRKAVQKQRAVYEAFPRSKASLAFKAVAQKVDSWPLPANPRGHLEFFVERLVQHPATGSAV
notes: FleN, P. aeruginosa PAO1, full-length with D48A; pProEx-Htb-cloned, tag cleaved by HRV3c protease; source: E. coli BL21 Star (DE3), coexpressed with FleQ^REC-AAA+, purified as complex (IMAC, HRV3c cleavage, SEC); not shown: His6, N-terminal, cleaved
B4: His6-tagged full-length FleN^D48A (tag not cleaved) (natural protein)
chain: MKQMGSMHPVQVIAVTGGKGGVGKTNVSVNLALALADLGRRVMLLDAALGLANVDVLLGLTPKRTLADVIEGRCELRDVLLLGPGGVRIVPAASGTQSMVHLSPMQHAGLIQAFSDISDNLDVLVVDTAAGIGDSVVSFVRAAQEVLLVVCDEPTSITDAYALIKLLNRDHGMTRFRVLANMAHSPQEGRNLFAKLTKVTDRFLDVALQYVGVIPYDESVRKAVQKQRAVYEAFPRSKASLAFKAVAQKVDSWPLPANPRGHLEFFVERLVQHPATGSAV
notes: pProEx-Htb-cloned; source: E. coli BL21 Star (DE3), coexpressed with FleQ^FL, purified as complex (IMAC, SEC), without tag cleavage; not shown: His6, N-terminal, kept

Series [1] has as its target B3. Briefly: cryo-EM structure; c-di-GMP-bound complex, coexpressed and co-purified (IMAC, tag cleavage, SEC with 2 uM c-di-GMP); 200 uM AppCp and 4 uM c-di-GMP before grid preparation. Particulars: both partners purified.
Series [2] concerns the molecule itself. Described as above.
The target in series [3] is B4. Briefly: cryo-EM structure; c-di-GMP-free complex, coexpressed and co-purified (IMAC, SEC), with AppCp (100 uM); 20 mM HEPES pH 8.0, 250 mM NaCl, 2 mM MgCl2, 2% glycerol; C2 symmetry. The settings on record: both partners purified.
Series [4] deals with the molecule itself. Described as above.
Series [5] has as its target B1. Briefly: cryo-EM structure; c-di-GMP-bound complex, coexpressed and co-purified (IMAC, tag cleavage, SEC with 2 uM c-di-GMP); 200 uM AppCp and 4 uM c-di-GMP before grid preparation. Particulars: both partners purified.
Series [6] deals with B2. Briefly: cryo-EM structure; c-di-GMP-free complex, coexpressed and co-purified (IMAC, SEC), with AppCp (100 uM); 20 mM HEPES pH 8.0, 250 mM NaCl, 2 mM MgCl2, 2% glycerol; C2 symmetry. Particulars: both partners purified.

As to B1, the “stoichiometry N” value in series [1] was 1.5 FleQ per FleN (3:2). Besides, the binding result in series [2] was “binds”.
Take B2: in series [3], the “stoichiometry N” value was 2 FleQ per FleN (4:2). For the same molecule, the binding result in series [4] is on record as “binds”.
For B3, the binding result in series [5] and in series [2] was “binds” throughout.
Consider B4, for which the binding result in series [6] and in series [4] was “binds” in each case.

One may read the stoichiometry N as the number of molecules, sites or subunits per partner or assembly.
